One block for each molecule: values may come before it. Ends that are not written are not given here. * marks the point of attachment. Biotin = O=C1N[C@H]2[C@H](CS[C@H]2CCCCC(=O)*)N1
Legend:
[1] = target: T1, Ero1α–PDI (Homo sapiens, UniProt P07237); experiment: oxygen consumption assay; type: biochemical; conditions: pH 7.0, 50 μM inhibitor pre- or postactivation, 10 μM PDI, 10 mM GSH; control compound
T1 construct: gene P4HB; with ERO1-like protein alpha

[2] = target: T2, His-tagged mature protein disulfide-isomerase (PDI) (human, UniProt P07237 18-508); experiment: BLI; biotin-labeled β-hairpin of Ero1α immobilised on SA biosensors; PDI at 0, 0.5, 1.0, 2.0, 4.0 μM; 30 °C; 20 mM sodium phosphate, pH 7.0, 300 mM NaCl, 1 mM DTT; 1:1 model; conditions: both partners purified
T2 construct: protein disulfide-isomerase (PDI), human, mature protein, domains a, b, b', a'; calculated mass of the construct 56379 Da; Treated with 1 mM DTT before ITC and in the BLI assays with the β-hairpin
T2 sequence (P07237 18-508): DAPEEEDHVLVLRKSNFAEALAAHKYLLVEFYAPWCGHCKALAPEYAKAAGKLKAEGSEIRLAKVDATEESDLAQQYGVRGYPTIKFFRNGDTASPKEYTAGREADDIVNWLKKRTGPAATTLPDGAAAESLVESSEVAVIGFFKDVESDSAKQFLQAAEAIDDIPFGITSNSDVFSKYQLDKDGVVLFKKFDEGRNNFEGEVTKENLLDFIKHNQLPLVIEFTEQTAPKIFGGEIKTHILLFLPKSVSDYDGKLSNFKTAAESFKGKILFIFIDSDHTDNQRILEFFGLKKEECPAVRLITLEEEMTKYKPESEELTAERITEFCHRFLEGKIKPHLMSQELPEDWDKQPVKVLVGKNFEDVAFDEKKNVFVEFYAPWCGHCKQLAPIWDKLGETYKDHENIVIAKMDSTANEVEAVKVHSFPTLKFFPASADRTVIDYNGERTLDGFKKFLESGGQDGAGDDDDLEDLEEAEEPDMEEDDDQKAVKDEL

[3] = target: T2, His-tagged mature protein …; experiment: ITC; 600 μM KFWWFS injected into 27 μM PDI; 25 °C; 20 mM sodium phosphate, pH 7.0, 0.15 M NaCl; both treated with 1 mM DTT for 5 min before the measurement; conditions: both partners purified
[4] = target: T2, His-tagged mature protein …; experiment: BLI; KFWWFS immobilised on AR2G biosensors; PDI at 0, 0.5, 1.0, 2.0 μM; 30 °C; 20 mM sodium phosphate, pH 7.0, 300 mM NaCl; 1:1 model, association and dissociation fitted separately; conditions: both partners purified

T1 sequence (P07237 18-508): as above
T1 sequence (Q96HE7 24-468 partner): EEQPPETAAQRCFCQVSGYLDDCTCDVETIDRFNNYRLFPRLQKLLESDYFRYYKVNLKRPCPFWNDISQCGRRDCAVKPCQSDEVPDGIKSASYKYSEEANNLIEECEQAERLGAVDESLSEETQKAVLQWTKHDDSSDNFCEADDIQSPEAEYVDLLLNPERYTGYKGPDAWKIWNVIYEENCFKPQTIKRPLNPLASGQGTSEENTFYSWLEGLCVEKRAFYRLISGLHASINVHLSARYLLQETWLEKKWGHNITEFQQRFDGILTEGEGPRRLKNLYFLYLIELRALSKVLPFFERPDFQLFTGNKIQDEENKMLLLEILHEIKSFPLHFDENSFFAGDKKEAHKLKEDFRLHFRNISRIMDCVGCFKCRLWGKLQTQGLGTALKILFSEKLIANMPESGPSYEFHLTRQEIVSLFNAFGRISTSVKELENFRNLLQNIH

Molecule: C[C@]12CC[C@@H]3c4ccc(O)cc4CC[C@H]3[C@@H]1CC[C@H]2O [17α-estradiol]
inhibition at 50 μM [1]: it inhibited both activation and catalytic turnover, but only marginally

Kd [2]: 4 µM
B1: β-hairpin of Ero1α (RYLLQETWLEKKWGH) with an N-terminal biotin label (peptide)
peptide: Biotin-RYLLQETWLEKKWGH
notes: protruding β-hairpin of human ER oxidoreductin 1 alpha (Ero1α), with a tryptophan at the tip (Trp272); also called β-hairpin loop of Ero1α; source: synthetic peptide, synthesized by GenScript

Kd [3]: 6.8 µM
stoichiometry N [3]: 0.97
Kd [4]: 12.7 µM
B2: peptide KFWWFS (peptide)
peptide: KFWWFS
notes: model peptide without cysteine that mimics the exposed hydrophobic core of protein substrates; Immobilised on AR2G biosensors for BLI; also called model peptide; source: lyophilized peptide dissolved in 10 mM HCl

Source: paper PMC7324491, “Non-native proteins inhibit the ER oxidoreductin 1 (Ero1)–protein disulfide-isomerase relay when protein folding capacity is exceeded” (The Journal of Biological Chemistry, 2020)
